Data published in patent US7183387 (Genentech, dated 2007).

Key:
[1] = molecular target: T1, human neonatal Fc receptor (FcRn), biotinylated (human, UniProt P55899 24-297; P61769 21-119, biotinylated (biotin-X-NHS)); experiment: FcRn ELISA (E27 background by paragraph 363)
T1 construct: captured on streptavidin plates

[2] = molecular target: T2, human FcγRIA α subunit extracellular domain-His6-GST fusion (human, UniProt P12314 16-292); experiment: FcγRI ELISA, E27 background
T2 construct: extracellular domain; also called GST-FcγRIA; CD64; not shown: glutathione S transferase (GST)

[3] = molecular target: T3, human FcγRIIA-Arg131 α subunit extracellular domain-His6-GST fusion (human, UniProt P12318 34-217); experiment: immune complex ELISA, E27 background
T3 construct: extracellular domain; also called FcγRIIA-R131; not shown: glutathione S transferase (GST)
T3 sequence: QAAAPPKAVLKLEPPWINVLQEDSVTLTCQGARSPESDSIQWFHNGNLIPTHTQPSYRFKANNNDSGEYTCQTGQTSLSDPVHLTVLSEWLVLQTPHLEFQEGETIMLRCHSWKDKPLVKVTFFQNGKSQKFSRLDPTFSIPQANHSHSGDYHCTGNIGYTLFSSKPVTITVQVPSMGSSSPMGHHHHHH

[4] = molecular target: T4, human FcγRIIIA-Phe158 α subunit extracellular domain-His6-GST fusion (human, UniProt P08637 17-208); experiment: immune complex ELISA, E27 background
T4 construct: extracellular domain; also called FcγRIIIA-F158; CD16; not shown: glutathione S transferase (GST)

[5] = molecular target: T5, human FcγRIIB α subunit extracellular domain-His6-GST fusion (human, UniProt P31994 43-217); experiment: immune complex ELISA, E27 background
T5 construct: extracellular domain; also called CD32; not shown: glutathione S transferase (GST)
T5 sequence: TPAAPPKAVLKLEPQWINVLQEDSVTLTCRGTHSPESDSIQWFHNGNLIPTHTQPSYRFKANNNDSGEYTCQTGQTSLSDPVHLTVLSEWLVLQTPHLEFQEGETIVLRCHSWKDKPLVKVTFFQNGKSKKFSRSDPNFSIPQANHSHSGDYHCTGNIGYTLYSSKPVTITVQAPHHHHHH

[6] = molecular target: T2, human FcγRIA α subunit extracellular …; experiment: FcγRI ELISA and THP-1 cells, averaged
[7] = molecular target: T3, human FcγRIIA-Arg131 α subunit …; experiment: hexamer ELISA
[8] = molecular target: T4, human FcγRIIIA-Phe158 α subunit …; experiment: hexamer ELISA
[9] = molecular target: T5, human FcγRIIB α subunit extracellular …; experiment: hexamer ELISA
[10] = molecular target: T1, human neonatal Fc receptor (FcRn), …; experiment: FcRn ELISA, pH 6.0;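 as to ratio to native IgG1: Streptavidin-captured FcRn plates, IgG variants titrated 2 h at pH 6.0, peroxidase anti-human IgG read at 450 nm, variant over standard concentration at the standard curve mid-point absorbance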
Procedure: (§1) FcRn Binding ELISA: For measuring FcRn binding activity of IgG variants, ELISA plates were coated with 2 µg/ml streptavidin (Zymed, South San Francisco) in 50 mM carbonate buffer, pH 9.6, at 4° C. overnight and blocked with PBS-0.5% BSA, pH 7.2 at room temperature for one hour. Biotinylated FcRn (prepared using biotin-X-NHS from Research Organics, Cleveland, Ohio and used at 1–2 µg/ml) in PBS-0.5% BSA, 0.05% polysorbate 20, pH 7.2, was added to the plate and incubated for one hour. Two fold serial dilutions of IgG standard (1.6–100 ng/ml) or variants in PBS-0.5% BSA, 0.05% polysorbate 20, pH 6.0, were added to the plate and incubated for two hours. Bound IgG was detected using peroxidase labeled goat F(ab')_2 anti-human IgG F(ab')_2 in the above pH 6.0 buffer (Jackson ImmunoResearch, West Grove, Pa.) followed by 3,3',5,5'-tetramethyl benzidine (Kirgaard & Perry Laboratories) as the substrate. Plates were washed between steps with PBS-0.05% TWEEN 20® at either pH 7.2 or 6.0. Absorbance was read at 450 nm on a Vmax plate reader (Molecular Devices, Menlo Park, Calif.). Titration curves were fit with a four-parameter nonlinear regression curve-fitting program (KaleidaGraph, Synergy software, Reading, Pa.). Concentrations of IgG variants corresponding to the mid-point absorbance of the titration curve of the standard were calculated and then divided by the concentration of the standard corresponding to the mid-point absorbance of the standard titration curve.

[11] = molecular target: T1, human neonatal Fc receptor (FcRn), …; experiment: FcRn ELISA, pH 6.0; remark: listed apart in the source;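 as to ratio to native IgG1: Streptavidin-captured FcRn plates, IgG variants titrated 2 h at pH 6.0, peroxidase anti-human IgG read at 450 nm, variant over standard concentration at the standard curve mid-point absorbance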
Procedure: as §1

[12] = molecular target: T6, human FcγRIIA-His131 α subunit extracellular domain-His6-GST fusion (human, UniProt P12318 34-217); experiment: hexamer ELISA
T6 construct: extracellular domain; also called FcγRIIA-H131; not shown: glutathione S transferase (GST)
T6 sequence: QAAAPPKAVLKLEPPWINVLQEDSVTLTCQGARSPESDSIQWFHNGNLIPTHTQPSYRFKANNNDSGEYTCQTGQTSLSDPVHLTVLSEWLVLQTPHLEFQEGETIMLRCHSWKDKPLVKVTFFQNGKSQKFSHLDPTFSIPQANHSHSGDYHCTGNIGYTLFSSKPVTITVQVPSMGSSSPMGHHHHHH

[13] = molecular target: T3, human FcγRIIA-Arg131 α subunit …; experiment: hexamer ELISA (row shifted)
[14] = molecular target: T4, human FcγRIIIA-Phe158 α subunit …; experiment: hexamer ELISA (row shifted)
[15] = molecular target: T5, human FcγRIIB α subunit extracellular …; experiment: hexamer ELISA (row shifted)
[16] = molecular target: T2, human FcγRIA α subunit extracellular …; experiment: FcγRI ELISA and THP-1 cells, averaged (row shifted)
[17] = molecular target: T4, human FcγRIIIA-Phe158 α subunit …; experiment: hexamer ELISA; remark: listed apart in the source

T2 sequence (P12314 other isoform, or with tags, fused parts or gaps): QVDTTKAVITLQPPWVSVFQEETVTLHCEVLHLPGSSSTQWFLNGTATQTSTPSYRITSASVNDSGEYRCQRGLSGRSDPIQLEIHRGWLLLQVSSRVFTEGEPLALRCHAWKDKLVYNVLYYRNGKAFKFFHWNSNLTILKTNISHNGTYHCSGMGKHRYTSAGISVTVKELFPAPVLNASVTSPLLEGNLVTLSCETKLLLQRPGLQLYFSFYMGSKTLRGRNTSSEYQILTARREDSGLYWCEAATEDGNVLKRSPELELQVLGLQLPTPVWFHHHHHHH
T4 sequence (P08637 other isoform, or with tags, fused parts or gaps): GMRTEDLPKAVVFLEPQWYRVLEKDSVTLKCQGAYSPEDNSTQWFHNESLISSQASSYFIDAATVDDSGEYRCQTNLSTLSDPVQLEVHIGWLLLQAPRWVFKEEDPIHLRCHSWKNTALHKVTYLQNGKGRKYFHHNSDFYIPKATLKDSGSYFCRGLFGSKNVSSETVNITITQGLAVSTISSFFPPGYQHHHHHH
T1 sequence (P55899 24-297 limits assumed, chain 1 of 2): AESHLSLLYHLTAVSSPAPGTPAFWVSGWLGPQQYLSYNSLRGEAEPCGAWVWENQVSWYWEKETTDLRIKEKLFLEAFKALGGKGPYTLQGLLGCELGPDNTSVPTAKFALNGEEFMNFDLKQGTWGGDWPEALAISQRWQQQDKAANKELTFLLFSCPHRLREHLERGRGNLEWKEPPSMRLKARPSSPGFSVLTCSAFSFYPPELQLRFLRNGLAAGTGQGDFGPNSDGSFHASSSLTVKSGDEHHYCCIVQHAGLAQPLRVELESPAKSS
T1 sequence (P61769 21-119 limits assumed, chain 2 of 2): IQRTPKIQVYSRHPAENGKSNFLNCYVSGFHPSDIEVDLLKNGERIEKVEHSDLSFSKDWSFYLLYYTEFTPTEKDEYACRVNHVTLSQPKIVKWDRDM

B1: recombinant humanized anti-IgE E27 IgG1 (parent antibody) (antibody)
heavy: not shown
light: DIQLTQSPSSLSASVGDRVTITCRASKPVDGEGDSYLNWYQQKPGKAPKLLIYAASYLESGVPSRFSGSGSGTDFTLTISSLQPEDFATYYCQQSHEDPYTFGQGTKVEIKRTVAAPSVFIFPPSDEQLKSGTASVVCLLNNFYPREAKVQWKVDNALQSGNSQESVTEQDSKDSTYSLSSTLTLSKADYEKHKVYACEVTHQGLSSPVTKSFNRGEC
notes: non-A allotype IgG1 Fc; E27 and all its variants were tested as monomers on FcRn and FcγRI and as hexamers with human IgE (3 E27 : 3 IgE) on FcγRIIA, FcγRIIB and FcγRIIIA; also called wt; E27 wildtype
[1]
  binding result: binds
[2]
  percentage of the wild type: 100%
[3]
  percentage of the wild type: 100%
[4]
  percentage of the wild type: 100%
[5]
  percentage of the wild type: 100%

B2: anti-IgE E27 IgG1 Asn434Ala (antibody)
heavy: not shown
light: DIQLTQSPSSLSASVGDRVTITCRASKPVDGEGDSYLNWYQQKPGKAPKLLIYAASYLESGVPSRFSGSGSGTDFTLTISSLQPEDFATYYCQQSHEDPYTFGQGTKVEIKRTVAAPSVFIFPPSDEQLKSGTASVVCLLNNFYPREAKVQWKVDNALQSGNSQESVTEQDSKDSTYSLSSTLTLSKADYEKHKVYACEVTHQGLSSPVTKSFNRGEC
[6]
  ratio to native IgG1: 1 ratio
[7]
  ratio to native IgG1: 0.96 ratio
[8]
  ratio to native IgG1: 0.77 ratio
[9]
  ratio to native IgG1: 0.97 ratio
[10]
  fold better binding than native IgG1: 3.5 fold
[11]
  ratio to native IgG1: 3.46 ratio

B3: anti-IgE E27 IgG1 Asp270Ala (antibody)
heavy: not shown
light: DIQLTQSPSSLSASVGDRVTITCRASKPVDGEGDSYLNWYQQKPGKAPKLLIYAASYLESGVPSRFSGSGSGTDFTLTISSLQPEDFATYYCQQSHEDPYTFGQGTKVEIKRTVAAPSVFIFPPSDEQLKSGTASVVCLLNNFYPREAKVQWKVDNALQSGNSQESVTEQDSKDSTYSLSSTLTLSKADYEKHKVYACEVTHQGLSSPVTKSFNRGEC
notes: also called D270(283)A
[6]
  ratio to native IgG1: 0.76 ratio
[7]
  ratio to native IgG1: 0.06 ratio
[8]
  ratio to native IgG1: 0.14 ratio
[9]
  ratio to native IgG1: 0.1 ratio
[12]
  reduction in binding against native IgG1: 50%
[11]
  ratio to native IgG1: 1.05 ratio

B4: anti-IgE E27 IgG1 E318A (antibody)
heavy: not shown
light: DIQLTQSPSSLSASVGDRVTITCRASKPVDGEGDSYLNWYQQKPGKAPKLLIYAASYLESGVPSRFSGSGSGTDFTLTISSLQPEDFATYYCQQSHEDPYTFGQGTKVEIKRTVAAPSVFIFPPSDEQLKSGTASVVCLLNNFYPREAKVQWKVDNALQSGNSQESVTEQDSKDSTYSLSSTLTLSKADYEKHKVYACEVTHQGLSSPVTKSFNRGEC
notes: also called Glu318Ala
[1]
  binding result: binds
[2]
  percentage of the wild type: 93%
[3]
  percentage of the wild type: 113%
[4]
  percentage of the wild type: 104%
[5]
  percentage of the wild type: 106%

B5: anti-IgE E27 IgG1 Glu380Ala (antibody)
heavy: not shown
light: DIQLTQSPSSLSASVGDRVTITCRASKPVDGEGDSYLNWYQQKPGKAPKLLIYAASYLESGVPSRFSGSGSGTDFTLTISSLQPEDFATYYCQQSHEDPYTFGQGTKVEIKRTVAAPSVFIFPPSDEQLKSGTASVVCLLNNFYPREAKVQWKVDNALQSGNSQESVTEQDSKDSTYSLSSTLTLSKADYEKHKVYACEVTHQGLSSPVTKSFNRGEC
[6]
  ratio to native IgG1: 1.04 ratio
[7]
  ratio to native IgG1: 1.18 ratio
[8]
  ratio to native IgG1: 0.92 ratio
[9]
  ratio to native IgG1: 1.07 ratio
[10]
  fold better binding than native IgG1: 2 fold
[11]
  ratio to native IgG1: 2.19 ratio

B6: anti-IgE E27 IgG1 His435Ala (antibody)
heavy: not shown
light: DIQLTQSPSSLSASVGDRVTITCRASKPVDGEGDSYLNWYQQKPGKAPKLLIYAASYLESGVPSRFSGSGSGTDFTLTISSLQPEDFATYYCQQSHEDPYTFGQGTKVEIKRTVAAPSVFIFPPSDEQLKSGTASVVCLLNNFYPREAKVQWKVDNALQSGNSQESVTEQDSKDSTYSLSSTLTLSKADYEKHKVYACEVTHQGLSSPVTKSFNRGEC
[13]
  ratio to native IgG1: 0.77 ratio
[14]
  ratio to native IgG1: 0.78 ratio
[15]
  ratio to native IgG1: 0.72 ratio
[16]
  ratio to native IgG1: 1.25 ratio
[11]
  ratio to native IgG1: < 0.1 ratio

B7: anti-IgE E27 IgG1 K320A (antibody)
heavy: not shown
light: DIQLTQSPSSLSASVGDRVTITCRASKPVDGEGDSYLNWYQQKPGKAPKLLIYAASYLESGVPSRFSGSGSGTDFTLTISSLQPEDFATYYCQQSHEDPYTFGQGTKVEIKRTVAAPSVFIFPPSDEQLKSGTASVVCLLNNFYPREAKVQWKVDNALQSGNSQESVTEQDSKDSTYSLSSTLTLSKADYEKHKVYACEVTHQGLSSPVTKSFNRGEC
[1]
  binding result: binds
[2]
  percentage of the wild type: 102%
[3]
  percentage of the wild type: 94%
[4]
  percentage of the wild type: 72%
[5]
  percentage of the wild type: 83%

B8: anti-IgE E27 IgG1 Ser254Ala (antibody)
heavy: not shown
light: DIQLTQSPSSLSASVGDRVTITCRASKPVDGEGDSYLNWYQQKPGKAPKLLIYAASYLESGVPSRFSGSGSGTDFTLTISSLQPEDFATYYCQQSHEDPYTFGQGTKVEIKRTVAAPSVFIFPPSDEQLKSGTASVVCLLNNFYPREAKVQWKVDNALQSGNSQESVTEQDSKDSTYSLSSTLTLSKADYEKHKVYACEVTHQGLSSPVTKSFNRGEC
[13]
  ratio to native IgG1: 0.97 ratio
[14]
  ratio to native IgG1: 0.73 ratio
[15]
  ratio to native IgG1: 1.15 ratio
[16]
  ratio to native IgG1: 0.96 ratio
[11]
  ratio to native IgG1: < 0.1 ratio

B9: anti-IgE E27 IgG1 Ser267Gly (antibody)
heavy: not shown
light: DIQLTQSPSSLSASVGDRVTITCRASKPVDGEGDSYLNWYQQKPGKAPKLLIYAASYLESGVPSRFSGSGSGTDFTLTISSLQPEDFATYYCQQSHEDPYTFGQGTKVEIKRTVAAPSVFIFPPSDEQLKSGTASVVCLLNNFYPREAKVQWKVDNALQSGNSQESVTEQDSKDSTYSLSSTLTLSKADYEKHKVYACEVTHQGLSSPVTKSFNRGEC
[17]
  binding result: no binding
[12]
  reduction in binding against native IgG1: 50%

B10: anti-IgE E27 IgG1 Tyr436Ala (antibody)
heavy: not shown
light: DIQLTQSPSSLSASVGDRVTITCRASKPVDGEGDSYLNWYQQKPGKAPKLLIYAASYLESGVPSRFSGSGSGTDFTLTISSLQPEDFATYYCQQSHEDPYTFGQGTKVEIKRTVAAPSVFIFPPSDEQLKSGTASVVCLLNNFYPREAKVQWKVDNALQSGNSQESVTEQDSKDSTYSLSSTLTLSKADYEKHKVYACEVTHQGLSSPVTKSFNRGEC
[13]
  ratio to native IgG1: 0.93 ratio
[14]
  ratio to native IgG1: 0.91 ratio
[15]
  ratio to native IgG1: 0.91 ratio
[16]
  ratio to native IgG1: 0.99 ratio
[11]
  ratio to native IgG1: < 0.1 ratio
